Source: US20210238276A1 (INTEGRAL MOLECULAR, published 2021)
Values belong to the binder of their own block, whether it stands above or below them.

Key:
[1] = target: T1, mouse GLUT1 (mmGLUT1) (mouse, UniProt P17809 1-492); assay: flow cytometry, permeabilized transfected HEK-293T
T1 construct: whole, on cells
T1 sequence (looked up): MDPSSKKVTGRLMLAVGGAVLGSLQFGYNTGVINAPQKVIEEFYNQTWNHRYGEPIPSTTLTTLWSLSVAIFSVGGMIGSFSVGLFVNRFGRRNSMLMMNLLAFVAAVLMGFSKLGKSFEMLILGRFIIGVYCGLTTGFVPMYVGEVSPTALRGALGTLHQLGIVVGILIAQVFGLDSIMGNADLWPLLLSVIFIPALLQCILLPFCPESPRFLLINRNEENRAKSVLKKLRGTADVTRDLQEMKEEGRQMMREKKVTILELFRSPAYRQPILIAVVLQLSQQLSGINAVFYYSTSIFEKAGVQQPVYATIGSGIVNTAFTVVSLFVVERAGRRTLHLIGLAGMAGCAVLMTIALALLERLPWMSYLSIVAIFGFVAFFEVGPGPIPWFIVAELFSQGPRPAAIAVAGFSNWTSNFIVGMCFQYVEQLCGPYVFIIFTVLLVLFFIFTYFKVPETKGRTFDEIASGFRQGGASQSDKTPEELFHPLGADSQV
Method: (§1) HEK-293T cells were transfected by CaPO₄ with plasmids in 6-well culture plates (Falcon) at 750,000 cells/well. At 48 hours post transfection, cells were stained with anti-V5 and anti-GLUT4 MAbs (purified scFv, 2 μg/ml) followed by biotinylated goat anti-mouse or human antibody (1:500) and streptavidin-PerCP (1:500). Fluorescence was detected using an Intellicyt high-throughput flow cytometer (HTFC; Intellicyt, Albuquerque, N. Mex.). For cell permeabilization, cells were treated with saponin at 0.1% in PBS for 20 minutes. To discriminate intact (live) and permeabilized (dead) cells without the use of detergent, propidium iodide (PI) was added to HEK-293T cells at 1 ug/ml just prior to flow cytometry. Where indicated, cytochalasin B (Sigma) was used at a final concentration of 10 uM and phloretin (Sigma) was used at a final concentration of 100 uM, each added in 10% NGS for 30 minutes prior to antibody staining as well as included with the primary antibody.

[2] = target: T2, human GLUT1 (hsGLUT1) (human, UniProt P11166 1-492); assay: flow cytometry, permeabilized transfected HEK-293T
T2 construct: whole, on cells
T2 sequence (looked up): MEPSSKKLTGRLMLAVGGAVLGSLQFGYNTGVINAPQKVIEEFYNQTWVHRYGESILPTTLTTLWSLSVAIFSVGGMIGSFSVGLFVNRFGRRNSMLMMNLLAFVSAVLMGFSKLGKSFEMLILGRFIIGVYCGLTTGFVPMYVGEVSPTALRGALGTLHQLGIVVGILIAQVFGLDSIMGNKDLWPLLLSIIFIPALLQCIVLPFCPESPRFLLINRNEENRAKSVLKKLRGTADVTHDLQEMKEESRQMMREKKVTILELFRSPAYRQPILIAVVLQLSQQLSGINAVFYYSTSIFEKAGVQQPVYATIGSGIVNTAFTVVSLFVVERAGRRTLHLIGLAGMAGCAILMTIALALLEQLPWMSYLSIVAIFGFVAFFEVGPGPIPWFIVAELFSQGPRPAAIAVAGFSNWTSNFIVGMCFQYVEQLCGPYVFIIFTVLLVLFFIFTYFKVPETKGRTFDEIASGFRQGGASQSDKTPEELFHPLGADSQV
Method: as §1

[3] = target: T3, mouse GLUT4 (mmGLUT4) (mouse, UniProt P14142 1-509); assay: immunofluorescence, surface of 3T3-L1 adipocytes (data not shown)
T3 construct: whole, on cells; Also tested as endogenous protein in murine 3T3-L1 adipocytes; also called endogenous GLUT4 of 3T3-L1 adipocytes
T3 sequence (looked up): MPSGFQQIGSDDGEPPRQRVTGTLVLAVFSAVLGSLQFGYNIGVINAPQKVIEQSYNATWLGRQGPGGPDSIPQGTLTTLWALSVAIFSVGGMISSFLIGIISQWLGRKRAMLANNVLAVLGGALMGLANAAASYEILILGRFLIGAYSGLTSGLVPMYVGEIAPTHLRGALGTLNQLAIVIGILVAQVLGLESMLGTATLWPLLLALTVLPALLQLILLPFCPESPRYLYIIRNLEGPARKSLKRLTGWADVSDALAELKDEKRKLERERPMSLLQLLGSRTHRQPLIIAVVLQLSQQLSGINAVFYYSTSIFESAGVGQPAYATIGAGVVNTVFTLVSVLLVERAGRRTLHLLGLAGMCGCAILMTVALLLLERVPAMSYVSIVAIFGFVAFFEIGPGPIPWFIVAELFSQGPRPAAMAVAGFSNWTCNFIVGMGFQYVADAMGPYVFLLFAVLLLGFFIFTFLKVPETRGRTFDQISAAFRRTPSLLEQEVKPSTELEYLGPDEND
Method: Adipocytes, between 7-8 days post-differentiation, were serum-starved for 3 hours in Dulbecco's modified Eagle's medium with […] bicarbonate and 20 mM HEPES pH 7.4, prior to stimulation for 20 minutes at 37° C. with or without 170 nM human insulin (Sigma Aldrich) prepared in the same media with 2% BSA. Adipocytes were washed twice with ice-cold PBS with calcium and magnesium (PBS+/+) and remained on ice for all subsequent steps.
Adipocytes were blocked with 10% Normal Goat Serum (NGS) in PBS+/+ for 30 minutes on ice before adding test antibodies at 10 ug/ml in 10% NGS. Primary antibodies were incubated for 2 hours, then washed 2× with PBS+/+. Cells were subsequently fixed for 5 minutes in 4% paraformaldehyde (PFA), washed 2× with PBS+/+, and then stained with secondary antibody (AF488 conjugated Goat anti-human, Jackson Immunoresearch) diluted 1:200 in 10% NGS. Secondary antibody was incubated for 1 hour, after washing 3× with PBS+/+. For intracellular staining, cells were fixed prior to the blocking step and permeabilized with 10% NGS containing 0.2% Saponin. The 1F8 antibody was used at 1 μg/ml, and detected using AF647-conjugated goat anti-mouse secondary antibody diluted 1:400 (Jackson Immunoresearch). Alexafluor 488 was visualized using the B-2EC cube with an exposure time of 1.5 seconds. Alexafluor 647 was visualized using the Cy5 cube with an exposure time of 2 seconds.

binding result [1]: binds | binding result [2]: binds
B1: AB102 (Fc fusion)
scFv: ALTQPSSVSANLGGTVKITCSGGGSYGYGWYQQKSPGSAPVTVIYSNDQRPSDIPSRFSGSKSGSTATLTITGVRAEDEAIYYCGSTDSDYVGIFGAGTTLTVLGQSSRSSGGGGSSGGGGSAVTLDESGGGLQTPGGTLSLVCKASGFDFSSYATIWVRQAPGKGLEWVAGISGTGTGSSTGYAPAVKGRATISRDNGQSTVRLQLNNLRAEDTGSYFCAKSTGYGDSWIYPDSIDAWGHGTEVIVSS
notes: also called MAb AB102; not shown: Fc fragment of human IgG1, cloned in frame with the scFv

binding result [3]: binds
B2: AB105 (Fc fusion)
scFv: ALTQPSSVSANPGETVEITCSGDSSYYGWYQQKSPGSAPVTVIYANTNRPSDIPSRFSGSASGSTATLTITGVQAEDEAVYYCGSADSTYAGIFGAGTTLTVLGQSSRSSGGGGSSGGGGSAVTLDESGGGLQTPGGALSLICKASGFTFSSYTMNWVRQAPGKGLEWVGVISNSGRTTNYGAAVQGRATISRDNGQSTVRLQLNNLRAEDTGTYYCAKSSASASCAWWAGRSYPCSANRIDAWGHGTEVIVSS
notes: Bivalent scFv-Fc; also called MAb AB105; not shown: Fc fragment of human IgG1, cloned in frame with the scFv
